The subject of data set [1] is fibrin of the fibrin plate (fibrinogen converted with 40 units of thrombin).
Data set [2] has as its target fibrinogen (MP Biomedicals), a human fibrin precursor (UniProt P02671).
The target of data set [3] is prothrombin (Sigma), a human blood coagulation factor (UniProt P00734).

Results on one substance are retold here after patent US20110195482.

“serine protease present in the venom of Bombus ignitus, activated form (Bi-VSP)”: in data set [1], the “fibrin plate assay, fibrinolytic activity” value is “white zones for the fibirnolysis were formed according to each different concentration”. In data set [2], the “human fibrinogen hydrolysis by Bi-VSP, SDS-PAGE time course (Aα chain)” value was “Aα chain was completely hydrolyzed within 5 min after the reaction”; the “human fibrinogen hydrolysis by Bi-VSP, SDS-PAGE time course (Bβ and γ chains)” value is “Bβ and γ chains were completely hydrolyzed within 60 min”. For the same substance, the “human prothrombin activation by Bi-VSP, SDS-PAGE time course” value in data set [3] is “prothrombin started to convert into an activated form of thrombin 5 min after the reaction”.
